This is an account of results in EP4772535A1 (Chia Tai Tianqing Pharmaceutical Group Co., Ltd., dated 2026).

Positions count from the first letter of the chain named.

The labels stand for the following.
B1: hz137G11D10-2.2 (antibody, human IgG1, kappa, V domains shown)
VH: QVQLQESGPGLVKPSQTLSLTCTVSGYSITSDYAWNWIRQHPGKGLEWIGYITYSASTSYNPSLKSRVTISRDTSKNQFFLKLSSVTAADTAVYYCARGAGTYYFDYWGQGTLVTVSS
VL: DIQMTQSPSSLSASVGDRVTITCITSTDIDEDMNWYQQKPGKAPKLLIYEDNSLRPGVPSRFSGSGYGTDFTLTISSLQPEDFATYYCLQTNNLPLTFGQGTKVEIKR
notes: Humanized, human IgG1/kappa
B2: hz137G11D10-1.1 (antibody, human IgG1, kappa, V domains shown)
VH: B1 VH with F80S
VL: ETTLTQSPAFMSATPGDKVNISCITSTDIDEDMNWYQQKPGEAAKLIISEDNSLRPGIPPRFSSSGYGTDFTLTINNIESEDAAYYFCLQTNNLPLTFGQGTKVEIKR
notes: Humanized, human IgG1/kappa
B3: hz137G11D10-1.2 (antibody, human IgG1, kappa, V domains shown)
VH: B1 VH
VL: B2 VL
notes: Humanized, human IgG1/kappa
B4: hz137G11D10-3.2 (antibody, human IgG1, kappa, V domains shown)
VH: B1 VH
VL: B1 VL with Y49S, G64S
notes: Humanized, human IgG1/kappa
B5: hz137G11D10-3.1 (antibody, human IgG1, kappa, V domains shown)
VH: B1 VH with F80S
VL: B1 VL with Y49S, G64S
notes: Humanized, human IgG1/kappa

T1 sequence (Q01973 30-937): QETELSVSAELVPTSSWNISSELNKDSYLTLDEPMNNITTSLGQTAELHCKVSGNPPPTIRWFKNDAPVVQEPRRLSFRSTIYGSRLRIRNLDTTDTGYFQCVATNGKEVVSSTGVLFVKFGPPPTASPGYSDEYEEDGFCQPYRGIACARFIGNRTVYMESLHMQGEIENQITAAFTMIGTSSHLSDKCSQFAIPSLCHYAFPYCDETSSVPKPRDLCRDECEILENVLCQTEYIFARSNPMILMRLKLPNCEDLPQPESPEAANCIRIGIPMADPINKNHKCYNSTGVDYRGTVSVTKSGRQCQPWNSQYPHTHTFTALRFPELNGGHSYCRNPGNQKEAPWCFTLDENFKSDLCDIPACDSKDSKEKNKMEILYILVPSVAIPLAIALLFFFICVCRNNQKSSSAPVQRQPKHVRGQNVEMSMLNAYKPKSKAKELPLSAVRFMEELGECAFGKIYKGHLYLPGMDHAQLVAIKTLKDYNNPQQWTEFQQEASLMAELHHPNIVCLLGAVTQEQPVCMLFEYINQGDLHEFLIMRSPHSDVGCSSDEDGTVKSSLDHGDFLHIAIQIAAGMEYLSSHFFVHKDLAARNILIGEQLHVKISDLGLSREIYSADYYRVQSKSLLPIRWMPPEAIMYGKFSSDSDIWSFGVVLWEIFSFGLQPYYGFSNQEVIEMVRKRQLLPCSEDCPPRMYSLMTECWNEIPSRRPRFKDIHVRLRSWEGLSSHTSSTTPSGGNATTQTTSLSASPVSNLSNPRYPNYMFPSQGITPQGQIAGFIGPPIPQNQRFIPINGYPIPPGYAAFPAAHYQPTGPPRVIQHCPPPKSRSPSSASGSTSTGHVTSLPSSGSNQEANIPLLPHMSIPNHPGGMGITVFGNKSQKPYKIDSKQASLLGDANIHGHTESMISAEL

One assay has as its target T1, ROR1 naturally expressed on human tumor cell lines (A549, Jeko-1, SW620, PA-1) (human, UniProt Q01973 30-937).
T1 construct: whole, on cells; also called cells expressing ROR1
Put plainly: FACS on Jeko-1 cells naturally expressing ROR1.
Broadly, the EC50 is the midpoint of the concentration-response curve. As for B1, the response was half-maximal at 0.012 nM (EC50) and the “Top (MFI)” value was 86100 MFI.
The matching figures for B2: 0.015 nM and 93200 MFI.
For B3, a half-maximal effect (EC50) was put at 0.016 nM and the “Top (MFI)” value was 92500 MFI.
Turning to B4, the EC50 stood at 0.012 nM and the “Top (MFI)” value came out at 86800 MFI.
On to B5, for which the EC50 amounted to 0.012 nM and the “Top (MFI)” value was found to be 87000 MFI.

The target in another assay is T2, human/cynomolgus monkey ROR1 protein (Acro Biosystems, Cat. No.: RO1-H522y) (human/cynomolgus monkey, UniProt Q01973 30-403).
T2 construct: Bought SPR analyte
T2 sequence (Q01973 30-403 limits assumed): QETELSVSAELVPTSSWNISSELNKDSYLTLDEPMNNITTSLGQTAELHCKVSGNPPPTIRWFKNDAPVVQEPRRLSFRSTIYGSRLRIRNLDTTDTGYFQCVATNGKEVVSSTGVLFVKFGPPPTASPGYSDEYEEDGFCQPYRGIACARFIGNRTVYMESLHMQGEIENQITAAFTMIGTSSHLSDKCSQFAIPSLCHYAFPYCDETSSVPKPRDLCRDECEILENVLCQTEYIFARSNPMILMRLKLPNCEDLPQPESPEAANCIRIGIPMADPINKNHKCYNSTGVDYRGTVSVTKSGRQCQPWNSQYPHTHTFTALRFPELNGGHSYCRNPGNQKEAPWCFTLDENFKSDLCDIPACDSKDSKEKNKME
As to the kind of experiment: SPR (Biacore), antibody captured on anti-hIgG CM5 chip, ROR1 protein as analyte, method of Example 5. Background: Surface plasmon resonance follows binding to a sensor surface in real time, without labels.
One may read the Kd as the constant that tells how readily two partners part at equilibrium. Broadly, the koff is the rate constant with which the complex falls apart. As a reminder, the kon is the second-order rate constant of association. With B1, the Kd came to 0.343 nM, the koff turned out to be 0.000811 s⁻¹ and the kon stood at 2.37e+06 M⁻¹ s⁻¹.
The matching figures for B2: 0.145 nM, 0.000539 s⁻¹ and 3.72e+06 M⁻¹ s⁻¹.
In turn, B3 returned a Kd of 0.105 nM, a koff of 0.000414 s⁻¹ and a kon of 3.94e+06 M⁻¹ s⁻¹.
The corresponding values for B4 are 0.16 nM, 0.000469 s⁻¹ and 2.92e+06 M⁻¹ s⁻¹.
With B5, the Kd amounted to 0.172 nM, the koff stood at 0.000492 s⁻¹ and the kon is 2.86e+06 M⁻¹ s⁻¹.

The target of the next assay is T1, ROR1 naturally expressed on human tumor …. Put plainly: FACS on SW620 cells naturally expressing ROR1.
As to B1, the EC50 was 0.009 nM and the “Top (MFI)” value was 28500 MFI.
For B2, the EC50 came out at 0.013 nM and the “Top (MFI)” value amounted to 32600 MFI.
Turning to B3, the EC50 was 0.013 nM and the “Top (MFI)” value came out at 31500 MFI.
The matching figures for B4: 0.011 nM and 30700 MFI.
On to B5, for which the EC50 was found to be 0.009 nM and the “Top (MFI)” value came to 30900 MFI.

For the next assay the target is unchanged. As to the kind of experiment: FACS on PA-1 cells naturally expressing ROR1.
For B1, the EC50 was 0.061 nM and the “Top (MFI)” value is 233000 MFI.
The corresponding values for B2 are 0.075 nM and 244000 MFI.
On to B3, for which a half-maximal response (EC50) required 0.092 nM and the “Top (MFI)” value was found to be 248000 MFI.
The matching figures for B4: 0.054 nM and 225000 MFI.
The matching figures for B5: 0.063 nM and 231000 MFI.
